Test results: PMC6606445 (Nature structural & molecular biology, 2018)

What was measured:
[1] = target: SYCP1 αN-end (101-206) (human) (UniProt Q15431); assay: crystal structure
RecE-αN-tetramer = RecE-αN-tetramer (UniProt Q15431); assay: SEC-MALS
[2] = target: truncated SYCP1 αN-end (101-175) (human) (UniProt Q15431); assay: crystal structure
SEC-MALS [3] = target: the molecule itself; assay: SEC-MALS
crystal structure = target: the molecule itself; assay: crystal structure
SEC-MALS [4] = target: the molecule itself; assay: SEC-MALS; remark: listed apart in the source

With “SYCP1 αN-end (101-206) (from UniProt Q15431 101-206) (domain or fragment)” the stoichiometry N [1] was 4.

For “RecE-αN-tetramer (from UniProt Q15431 206-362)”, the stoichiometry N (RecE-αN-tetramer) was 4.

For “truncated SYCP1 αN-end (101-175) (from UniProt Q15431 101-175) (domain or fragment)”, the stoichiometry N [2] was 4.

B1: SYCP1 αCore (101-783) (domain or fragment)
chain: GLSRVYSKLYKEAEKIKKWKVSTEAELRQKESKLQENRKIIEAQRKAIQELQFGNEKVSLKLEEGIQENKDLIKENNATRHLCNLLKETCARSAEKTKKYEYEREETRQVYMDLNNNIEKMITAFEELRVQAENSRLEMHFKLKEDYEKIQHLEQEYKKEINDKEKQVSLLLIQITEKENKMKDLTFLLEESRDKVNQLEEKTKLQSENLKQSIEKQHHLTKELEDIKVSLQRSVSTQKALEEDLQIATKTICQLTEEKETQMEESNKARAAHSFVVTEFETTVCSLEELLRTEQQRLEKNEDQLKILTMELQKKSSELEEMTKLTNNKEVELEELKKVLGEKETLLYENKQFEKIAEELKGTEQELIGLLQAREKEVHDLEIQLTAITTSEQYYSKEVKDLKTELENEKLKNTELTSHCNKLSLENKELTQETSDMTLELKNQQEDINNNKKQEERMLKQIENLQETETQLRNELEYVREELKQKRDEVKCKLDKSEENCNNLRKQVENKNKYIEELQQENKALKKKGTAESKQLNVYEIKVNKLELELESAKQKFGEITDTYQKEIEDKKISEENLLEEVEKAKVIADEAVKLQKEIDKRCQHKIAEMVALMEKHKHQYDKIIEERDSELGLYKSKEQEQSSLRASLEIELSNLKAELLSVKKQLEIEREEKEKLKREAKE
B1: binds (SEC-MALS [3]).

B2: GST-αC-dimer (domain or fragment)
chain: EKETQMEESNKARAAHSFVVTEFETTVCSLEELLRTEQQRLEKNEDQLKILTMELQKKSSELEEMTKLTNNKEVELEELKKVLGEKETLLYENKQFEKIAEELKGTEQELIGLLQAREKEVHDLEIQLTAITTSEQYYSKEVKDLKTELENEKLKNTELTSHCNKLSLENKELTQETSDMTLELKNQQEDINNNKKQEERMLKQIENLQETETQLRNELEYVREELKQKRDEVKCKLDKSEENCNNLRKQVENKNKYIEELQQENKALKKKGTAESKQLNVYEIKVNKLELELESAKQKFGEITDTYQKEIEDKKISEENLLEEVEKAKVIADEAVKLQKEIDKRCQHKIAEMVALMEKHKHQYDKIIEERDSELGLYKSKEQEQSSLRASLEIELSNLKAELLSVKKQLEIEREEKEKLKREAKE
With B2 the “stoichiometry N” value (SEC-MALS [3]) was 2.

B3: SYCP1 αN (101-362) (domain or fragment)
chain: GLSRVYSKLYKEAEKIKKWKVSTEAELRQKESKLQENRKIIEAQRKAIQELQFGNEKVSLKLEEGIQENKDLIKENNATRHLCNLLKETCARSAEKTKKYEYEREETRQVYMDLNNNIEKMITAFEELRVQAENSRLEMHFKLKEDYEKIQHLEQEYKKEINDKEKQVSLLLIQITEKENKMKDLTFLLEESRDKVNQLEEKTKLQSENLKQSIEKQHHLTKELEDIKVSLQRSVSTQKALEEDLQIATKTICQLTEEKETQ
B3: binds (SEC-MALS [3]).

B4: SYCP1 αC-end (676-770) (domain or fragment)
chain: ENLLEEVEKAKVIADEAVKLQKEIDKRCQHKIAEMVALMEKHKHQYDKIIEERDSELGLYKSKEQEQSSLRASLEIELSNLKAELLSVKKQLEIE
In the case of B4, the “stoichiometry N” value (crystal structure) is reported as 4.

B5: SYCP1 αCore-ΔNtip (112-783) (domain or fragment)
chain: EAEKIKKWKVSTEAELRQKESKLQENRKIIEAQRKAIQELQFGNEKVSLKLEEGIQENKDLIKENNATRHLCNLLKETCARSAEKTKKYEYEREETRQVYMDLNNNIEKMITAFEELRVQAENSRLEMHFKLKEDYEKIQHLEQEYKKEINDKEKQVSLLLIQITEKENKMKDLTFLLEESRDKVNQLEEKTKLQSENLKQSIEKQHHLTKELEDIKVSLQRSVSTQKALEEDLQIATKTICQLTEEKETQMEESNKARAAHSFVVTEFETTVCSLEELLRTEQQRLEKNEDQLKILTMELQKKSSELEEMTKLTNNKEVELEELKKVLGEKETLLYENKQFEKIAEELKGTEQELIGLLQAREKEVHDLEIQLTAITTSEQYYSKEVKDLKTELENEKLKNTELTSHCNKLSLENKELTQETSDMTLELKNQQEDINNNKKQEERMLKQIENLQETETQLRNELEYVREELKQKRDEVKCKLDKSEENCNNLRKQVENKNKYIEELQQENKALKKKGTAESKQLNVYEIKVNKLELELESAKQKFGEITDTYQKEIEDKKISEENLLEEVEKAKVIADEAVKLQKEIDKRCQHKIAEMVALMEKHKHQYDKIIEERDSELGLYKSKEQEQSSLRASLEIELSNLKAELLSVKKQLEIEREEKEKLKREAKE
With B5 the “stoichiometry N” value (SEC-MALS [3]) was 4.

B6: SYCP1 αN-tetramer (206-362) (domain or fragment)
chain: ETRQVYMDLNNNIEKMITAFEELRVQAENSRLEMHFKLKEDYEKIQHLEQEYKKEINDKEKQVSLLLIQITEKENKMKDLTFLLEESRDKVNQLEEKTKLQSENLKQSIEKQHHLTKELEDIKVSLQRSVSTQKALEEDLQIATKTICQLTEEKETQ
In the case of B6, the “stoichiometry N” value (SEC-MALS [3]) is reported as 4.

B7: SYCP1 αC-end extended (676-783) L679A I688A (domain or fragment)
chain: ENLAEEVEKAKVAADEAVKLQKEIDKRCQHKIAEMVALMEKHKHQYDKIIEERDSELGLYKSKEQEQSSLRASLEIELSNLKAELLSVKKQLEIEREEKEKLKREAKE
For B7, the “stoichiometry N” value (SEC-MALS [4]) was 2.

B8: SYCP1 αC-dimer (358-783) (domain or fragment)
chain: EKETQMEESNKARAAHSFVVTEFETTVCSLEELLRTEQQRLEKNEDQLKILTMELQKKSSELEEMTKLTNNKEVELEELKKVLGEKETLLYENKQFEKIAEELKGTEQELIGLLQAREKEVHDLEIQLTAITTSEQYYSKEVKDLKTELENEKLKNTELTSHCNKLSLENKELTQETSDMTLELKNQQEDINNNKKQEERMLKQIENLQETETQLRNELEYVREELKQKRDEVKCKLDKSEENCNNLRKQVENKNKYIEELQQENKALKKKGTAESKQLNVYEIKVNKLELELESAKQKFGEITDTYQKEIEDKKISEENLLEEVEKAKVIADEAVKLQKEIDKRCQHKIAEMVALMEKHKHQYDKIIEERDSELGLYKSKEQEQSSLRASLEIELSNLKAELLSVKKQLEIEREEKEKLKREAKE
In the case of B8, the “stoichiometry N” value (SEC-MALS [3]) is reported as 2.
